Results from article PMC10516938, “Conformational dynamics of cohesin/Scc2 loading complex are regulated by Smc3 acetylation and ATP binding” (Nature Communications, 2023).
Positions count from the first letter of the chain named. Blank lines part the entries; values can stand above or below the binder they belong to.

Assays:
Smc3 K1004C E1155Q = target: T1, Smc3 K1004C E1155Q (S. cerevisiae, UniProt P47037 1-1230, K1004C | E1155Q); test: cross-linking; in vivo BMOE cross-link of cysteine pairs in yeast cells arrested in late G1 by non-degradable Sic1(9m); Scc1-PK immunoprecipitated, western blot, band intensities quantified; conditions: partners not purified
T1 construct: Smc3, S. cerevisiae; also called EQ mutant version of Smc3^K1004C; source: S. cerevisiae W303, ectopically expressed, late G1 arrested cells, whole-cell extract
T1 sequence (looked up): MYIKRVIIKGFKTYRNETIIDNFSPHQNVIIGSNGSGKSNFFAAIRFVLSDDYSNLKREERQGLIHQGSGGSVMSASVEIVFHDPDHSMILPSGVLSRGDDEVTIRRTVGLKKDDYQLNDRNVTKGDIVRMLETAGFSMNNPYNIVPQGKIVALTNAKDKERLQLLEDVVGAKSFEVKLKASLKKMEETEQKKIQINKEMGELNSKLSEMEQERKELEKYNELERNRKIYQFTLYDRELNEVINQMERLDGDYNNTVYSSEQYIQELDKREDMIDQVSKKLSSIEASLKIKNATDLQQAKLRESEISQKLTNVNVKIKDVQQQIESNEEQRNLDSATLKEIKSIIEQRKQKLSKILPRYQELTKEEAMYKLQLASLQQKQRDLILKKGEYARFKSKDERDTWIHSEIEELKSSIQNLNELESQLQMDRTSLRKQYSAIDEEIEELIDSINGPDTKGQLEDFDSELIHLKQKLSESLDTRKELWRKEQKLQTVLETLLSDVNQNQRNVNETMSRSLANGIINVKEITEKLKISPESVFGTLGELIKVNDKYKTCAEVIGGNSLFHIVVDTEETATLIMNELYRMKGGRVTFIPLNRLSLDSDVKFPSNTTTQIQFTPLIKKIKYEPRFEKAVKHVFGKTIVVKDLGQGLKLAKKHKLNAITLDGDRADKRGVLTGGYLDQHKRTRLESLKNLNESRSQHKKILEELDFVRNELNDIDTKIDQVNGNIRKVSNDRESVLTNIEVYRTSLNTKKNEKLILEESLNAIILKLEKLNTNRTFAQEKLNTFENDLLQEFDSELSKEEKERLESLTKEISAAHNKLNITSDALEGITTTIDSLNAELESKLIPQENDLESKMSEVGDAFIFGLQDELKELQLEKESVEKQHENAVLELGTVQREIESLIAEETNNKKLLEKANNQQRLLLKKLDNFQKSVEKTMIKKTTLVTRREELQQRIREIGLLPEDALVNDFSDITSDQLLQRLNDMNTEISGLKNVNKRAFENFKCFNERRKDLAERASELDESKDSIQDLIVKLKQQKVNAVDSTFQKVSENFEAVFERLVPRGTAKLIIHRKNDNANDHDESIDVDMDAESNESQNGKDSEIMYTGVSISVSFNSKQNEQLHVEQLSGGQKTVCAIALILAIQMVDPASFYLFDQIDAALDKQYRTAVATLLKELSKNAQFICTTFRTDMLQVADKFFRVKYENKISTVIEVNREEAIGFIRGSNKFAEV

[1] = target: T2, Smc3^QQ W483R R1008I Q67C (S. cerevisiae, UniProt P47037 1-1230, Q67C | K112Q | K113Q | W483R | R1008I); test: as above; conditions: partners not purified
T2 construct: Smc3, S. cerevisiae; also called smc3-QQ Q67C with R1008I and W483R; source: S. cerevisiae W303, late G1 arrested cells, whole-cell extract
T2 sequence (looked up): T1 sequence (looked up) with Q67C, K112Q, K113Q, W483R, C1004K, R1008I, Q1155E

fold change of the crosslink against wild-type Smc3 (K1004C) (Smc3 K1004C E1155Q): ~10 fold
B1: Scc2 D369C (natural protein, S. cerevisiae, UniProt Q04002 1-1493, looked up)
chain: MSYPGKDKNIPGRIIEALEDLPLSYLVPKDGLAALVNAPMRVSLPFDKTIFTSADDGRDVNINVLGTANSTTSSIKNEAEKERLVFKRPSNFTSSANSVDYVPTNFLEGLSPLAQSVLSTHKGLNDSINIEKKSEIVSRPEAKHKLESVTSNAGNLSFNDNSSNKKTKTSTGVTMTQANLAEQYLNDLKNILDIVGFDQNSAEIGNIEYWLQLPNKKFVLTTNCLTKLQMTIKNITDNPQLSNSIEITWLLRLLDVMVCNIKFSKSSLKMGLDDSMLRYIALLSTIVLFNIFLLGKNDSNLHRESYIMEPVNFLSDLIESLKILTIEYGSLKIEFDTFQEALELLPKYIRNGPFLDDNVTAKLVYIFSCLLMNNDIEATTNIQFQSFWDNVKRISSDILVSLFGSFDQQRGFIIEELLSHIEKLPTKRIQKKLRKVGNQNIYITDFTFTLMSMLENINCYSFCNQMKDIAPENIDLLKNEYKKQEEFLFNIVEHINDTILERFFKNPSALRYVIDNFVQDLLLLISSPQWPVTEKILSSLLKRLLSVYSPSMQVSANIETICLQLIGNIGSTIFDIKCSTRDHEDNNLIKMINYPETLPHFFKSFEECIAYNETIKCRRSATRFLWNLRLGTILILEEYTKDAKEQIITVDNELKKILEQIKDGGLGPELENREADFSTIKLDYFSILHAFELLNLYDPYLKLILSLLAKDKIKLRSTAIKCLSMLASKDKVILSNPMVKETIHRRLNDSSASVKDAILDLVSINSSYFEFYQQINNNYNDDSIMVRKHVLRINEKMYDETNDIVTKVYVIARILMKIEDEEDNIIDMARLILLNRWILKVHEVLDQPEKLKEISSSVLLVMSRVAIMNEKCSQLFDLFLNFYLLNKEAHSKEAYDKITHVLTILTDFLVQKIVELNSDDTNEKNSIVDKQNFLNLLAKFADSTVSFLTKDHITALYPYMVSDEKSDFHYYILQVFRCTFEKLANFKQKFLYDLETTLLSRLPKMNVREIDEAMPLIWSVATHRHDTARVAKACSSCLSHLHPYINKANNEEAAIVVDGKLQRLIYLSTGFARFCFPKPSNDKIAFLQEGETLYEHITKCLLVLSKDKITHVIRRVAVKNLTKLCGNHPKLFNSRHVLHLLDKEFQSDQLDIKLVILESLYDLFLLEERKSVRNTGVNSTLSSNSILKKKLLKTNRVEFANDGVCSALATRFLDNILQLCLLRDLKNSLVAIRLLKLILKFGYTNPSHSIPTVIALFASTSQYIRHVAYELLEDLFEKYETLVFSSLSRGVTKAIHYSIHTDEKYYYKHDHFLSLLEKLCGTGKKNGPKFFKVLKRIMQSYLDDITDLTSTNSSVQKSIFVLCTNISNITFVSQYDLVSLLKTIDLTTDRLKEVIMDEIGDNVSSLSVSEEKLSGIILIQLSLQDLGTYLLHLYGLRDDVLLLDIVEESELKNKQLPAKKPDISKFSAQLENIEQYSSNGKLLTYFRKHVKDT
notes: Scc2, S. cerevisiae; source: S. cerevisiae W303, in vivo, whole-cell extract

crosslinking efficiency relative to wild type [1]: ~70%
B2: Scc2 T1175C (natural protein, S. cerevisiae, UniProt Q04002 1-1493, looked up)
chain: B1 chain with C369D, T1175C
notes: as for B1
